According to the supplement of paper PMC10126150:
± gives the standard deviation of the averaged measurements.
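Further: ATP exposure 15 min at 22 °C before imaging.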

These sequences were tested on ATP (assay: switch fluorescence ratio, 500 uM ATP over buffer (Cy3 cluster intensity, sum of 5 cycles each) (fold (ratio)); higher = stronger signal-on switching upon ATP binding; sequences stand for … in TCGTCGGCAGCGTCAGATGTGTATAAGAGACAGTTTTTTTTTTTTTTTTTTTTTTTTT…TC). Settings: aptamer strand: ATP DNA aptamer (quencher-CACCTGGGGGAGTATTGCGGAGGAAGG + anchor), 100 nM annealed; ATP concentration: 500 uM.
Method in brief: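 Clusters carrying Cy3-labelled switching strands on a modified Illumina MiSeq flow-cell were annealed to 100 nM quencher-labelled ATP aptamer and imaged in selection buffer. They were imaged again after 15 min with 500 uM ATP at 22 °C, over five buffer/ATP cycles with NaOH stripping and re-annealing in between. For each cluster, the fluorescence ratio is the summed Cy3 intensity of the target cycles divided by that of the buffer cycles, averaged per switch-domain sequence. Clusters outside 100-1000 RFU were left out.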
Work on GACTAAGGGG yielded a switch fluorescence ratio of 1 ± 0.02. TGTGGGCTGT showed a switch fluorescence ratio of 1.02 ± 0.015. Work on CGGTTTTTGT yielded a switch fluorescence ratio of 0.9992 ± 0.008. ATGTATAGAG showed a switch fluorescence ratio of 1.03 ± 0.026. With AGTGGGCTTT the switch fluorescence ratio was 0.996 ± 0.037. Sequence ATGATATTTC has a switch fluorescence ratio of 0.961 ± 0.021. Sequence ACCATTCAAA has a switch fluorescence ratio of 1 ± 0.021. With TTTTTCACGG the switch fluorescence ratio was 0.999 ± 0.034. With TTTTTGTTCT the switch fluorescence ratio was 0.996 ± 0.024. Work on GATAGAGAGG yielded a switch fluorescence ratio of 1 ± 0.044. ATGAGAAAAG was tested, and the switch fluorescence ratio was 0.991 ± 0.0095. Sequence TTGGGAGTTG has a switch fluorescence ratio of 0.984 ± 0.037. CTGGGACTTG showed a switch fluorescence ratio of 1 ± 0.013. CGGTGGGTC gave a switch fluorescence ratio of 1.009 ± 0.0047. In the case of TATTGGTGTT, the switch fluorescence ratio is reported as 0.99 ± 0.015. With GGCCGCCTTG the switch fluorescence ratio was 1 ± 0.037. In the case of CATGCAAATA, the switch fluorescence ratio is reported as 1.07 ± 0.034. In the case of TAATTGACCG, the switch fluorescence ratio is reported as 1.091 ± 0.0088. TAAGTATCGC gave a switch fluorescence ratio of 1.03 ± 0.036. TGTCTATAGT gave a switch fluorescence ratio of 0.986 ± 0.036. Sequence CGTGTTTTCT has a switch fluorescence ratio of 0.99 ± 0.031. TTGGGTTCTC gave a switch fluorescence ratio of 0.983 ± 0.037. With CCCTGTTCGC the switch fluorescence ratio was 1.03 ± 0.041. In the case of CAAGAAATTA, the switch fluorescence ratio is reported as 1 ± 0.011. TCCCTTTGGC was tested, and the switch fluorescence ratio was 1.01 ± 0.04. ATAGGGAATG gave a switch fluorescence ratio of 0.9986 ± 0.007. Sequence GCCGGGATGT has a switch fluorescence ratio of 1.02 ± 0.052. Sequence TGGGGTAAAT has a switch fluorescence ratio of 1.01 ± 0.017. For CCAATGTCTC, the switch fluorescence ratio was 1.08 ± 0.013. In the case of ATCGAATCCT, the switch fluorescence ratio is reported as 1.09 ± 0.012. With ATAATATGTT the switch fluorescence ratio was 0.9911 ± 0.004. For ATTTAGGTGG, the switch fluorescence ratio was 1.02 ± 0.053. For AGAACTGAGA, the switch fluorescence ratio was 0.998 ± 0.077. TTGGGGTTCG gave a switch fluorescence ratio of 0.98 ± 0.029. GTTCGAGGGC was tested, and the switch fluorescence ratio was 1.046 ± 0.002. With AACGGTCTGA the switch fluorescence ratio was 1.009 ± 0.0024. Sequence ATATACTAGA has a switch fluorescence ratio of 1.03 ± 0.049. ATCATACCGG was tested, and the switch fluorescence ratio was 1 ± 0.035. Work on AGCTGGTCGT yielded a switch fluorescence ratio of 0.97265 ± 0.00075. With AAATAAGTGA the switch fluorescence ratio was 0.979 ± 0.013. Sequence GCTGGACTCG has a switch fluorescence ratio of 1.053 ± 0.0015. GGGTGTAATC was tested, and the switch fluorescence ratio was 1.01 ± 0.024. In the case of TGAGGTCAAA, the switch fluorescence ratio is reported as 1.07 ± 0.041. GGTTATTATG was tested, and the switch fluorescence ratio was 0.978 ± 0.039. In the case of ATTATGCTG, the switch fluorescence ratio is reported as 0.98 ± 0.05. GCTGCGGGAT was tested, and the switch fluorescence ratio was 1.16 ± 0.15. TTTTTTCAGC was tested, and the switch fluorescence ratio was 1 ± 0.048. TTGGCATTTA gave a switch fluorescence ratio of 1.034 ± 0.0054. With TACTGGGGGT the switch fluorescence ratio was 1.04 ± 0.074. CGGTTGGCAA showed a switch fluorescence ratio of 1.09 ± 0.054. TTTGGGGGCA showed a switch fluorescence ratio of 0.989 ± 0.041. Work on TGGGGGCGTA yielded a switch fluorescence ratio of 0.9641 ± 0.0025. GGTCAGGGGA showed a switch fluorescence ratio of 0.988 ± 0.04. With TGACGGGGGA the switch fluorescence ratio was 0.986 ± 0.021. Work on TCTGATGGCT yielded a switch fluorescence ratio of 1.04 ± 0.05. In the case of TAGTGAGTAC, the switch fluorescence ratio is reported as 0.93 ± 0.11. Sequence GGAAGAGAAC has a switch fluorescence ratio of 0.995 ± 0.017. GGAGACTTTA was tested, and the switch fluorescence ratio was 1.006 ± 0.0056. For GCTCATTATT, the switch fluorescence ratio was 1.014 ± 0.0015. In the case of TTTTGAGTGT, the switch fluorescence ratio is reported as 0.995 ± 0.051. For AGTTTTCCCT, the switch fluorescence ratio was 1.01 ± 0.015. For AAAATCAGGC, the switch fluorescence ratio was 0.944 ± 0.085. Sequence TGGGGTAAAA has a switch fluorescence ratio of 0.99 ± 0.0091. Sequence GTGGTTCTAT has a switch fluorescence ratio of 0.996 ± 0.026. In the case of GGAGTCGTTT, the switch fluorescence ratio is reported as 0.987 ± 0.027. CTCTCGACAC gave a switch fluorescence ratio of 1.69 ± 0.078. ACACGTTCTT was tested, and the switch fluorescence ratio was 0.996 ± 0.019. With ACTGTATGTG the switch fluorescence ratio was 1.05 ± 0.024. For TTCAGGAGGA, the switch fluorescence ratio was 1.03 ± 0.011. Sequence GTGTGGTGCA has a switch fluorescence ratio of 0.9802 ± 0.0045. TGATGTTGAA gave a switch fluorescence ratio of 0.99891 ± 0.00059. With GTGAGAGGGG the switch fluorescence ratio was 1.008 ± 0.0069. For GTTTTATTAG, the switch fluorescence ratio was 0.951 ± 0.032. In the case of TGGACCTGAA, the switch fluorescence ratio is reported as 1.1 ± 0.038. TTGCTTGAGA showed a switch fluorescence ratio of 0.996 ± 0.028. AACAAACGGT gave a switch fluorescence ratio of 1.36 ± 0.057. Sequence GATAACCTTT has a switch fluorescence ratio of 1.073 ± 0.0078. AGATGTGGTT gave a switch fluorescence ratio of 0.9922 ± 0.0041. Work on GGGATGAGAG yielded a switch fluorescence ratio of 1 ± 0.04. For GGGATAGGCT, the switch fluorescence ratio was 1.02 ± 0.021. For GGCGGGGTAG, the switch fluorescence ratio was 0.996 ± 0.032. Sequence GAGTTCCCGA has a switch fluorescence ratio of 0.977 ± 0.048. GGGAATATTA was tested, and the switch fluorescence ratio was 1.04 ± 0.023. TAATTTACAG gave a switch fluorescence ratio of 1 ± 0.03. Sequence GATGTGGTGA has a switch fluorescence ratio of 0.9929 ± 0.0061.
